Measured values as given in publication PMC10404669, “Vanillyl alcohol oxidase from Diplodia corticola: Residues Ala420 and Glu466 allow for efficient catalysis of syringyl derivatives” (The Journal of Biological Chemistry, 2023).

B1: PsVAO (vanillyl alcohol oxidase) (Penicillium simplicissimum) (protein)
chain: MSKTQEFRPLTLPPKLSLSDFNEFIQDIIRIVGSENVEVISSKDQIVDGSYMKPTHTHDPHHVMDQDYFLASAIVAPRNVADVQSIVGLANKFSFPLWPISIGRNSGYGGAAPRVSGSVVLDMGKNMNRVLEVNVEGAYCVVEPGVTYHDLHNYLEANNLRDKLWLDVPDLGGGSVLGNAVERGVGYTPYGDHWMMHSGMEVVLANGELLRTGMGALPDPKRPETMGLKPEDQPWSKIAHLFPYGFGPYIDGLFSQSNMGIVTKIGIWLMPNPRGYQSYLITLPKDGDLKQAVDIIRPLRLGMALQNVPTIRHILLDAAVLGDKRSYSSRTEPLSDEELDKIAKQLNLGRWNFYGALYGPEPIRRVLWETIKDAFSAIPGVKFYFPEDTPENSVLRVRDKTMQGIPTYDELKWIDWLPNGAHLFFSPIAKVSGEDAMMQYAVTKKRCQEAGLDFIGTFTVGMREMHHIVCIVFNKKDLIQKRKVQWLMRTLIDDCAANGWGEYRTHLAFMDQIMETYNWNNSSFLRFNEVLKNAVDPNGIIAPGKSGVWPSQYSHVTWKL
B2: DcVAO (vanillyl alcohol oxidase) (Diplodia corticola) (protein)
chain: MSLSRPLALPPGVSESTFHQFIERITKTTPDVTIVESKDQFPDGGYHEPPSSHDPFYVQDKDHFIASAFVCPRSVDEVQDIVRAAGDFVIPLWPTSLGRNLGYGGAAPRVRGSVVLNLGKHMNRILEVNVEGAYALVEPGVTFEALHNYLVEHNLRDKLWLDVPDLGGGSVLGNTLERGVGYTPYGDHFMMHSGMEVVLANGELLRTGMGALPAPKSETEGVTKLHEEPGNKCWQLFPYGFGPYNDGLFSQSNLGIVTKLGLGLMPNPGGYQSYLITIPGEEDLHKAVEIIRPLRLNNVIQNVPTLRYVLLDAGMMGHKSDYTSSTSPIDEATTDAIAKKLNLGRWNFYGALYGPPEIRTAMWKLIHAAFSAIPGARFFFPDDVADPRAVLHNRHNVLQGIPSYEELRWVDWVPNGAHVAFSPISRISGADAARQVDLAKRRCRDAGFDYMGTFTVGMREMHHIVEIVFDRTDAGQRKRAEALVRGLVDECAALGWGEYRTHLAFMDQIAGTYGWGGGALGRFNERVKEALDPKGILAPGKSGVWGSRFGELKGKL

Tests used:
purified protein = substrate: C=CCc1ccc(O)c(OC)c1; assay: purified protein; format: biochemical, Penicillium simplicissimum; details: FAD (covalently bound) catalytic center; pH 7.5; 25.0 °C
[1] = substrate: COc1cc(CO)ccc1O; assay: Michaelis-Menten kinetics, purified enzyme, xylenol orange H2O2 assay (KM); format: biochemical, Penicillium simplicissimum; details: FAD (covalently bound) catalytic center; pH 7.5; 25.0 °C
[2] = substrate: COCc1ccc(O)c(OC)c1; assay: as above; format: biochemical, Penicillium simplicissimum; details: FAD (covalently bound) catalytic center; pH 7.5; 25.0 °C
[3] = substrate: CCOCc1ccc(O)c(OC)c1; assay: as above; format: biochemical, Penicillium simplicissimum; details: FAD (covalently bound) catalytic center; pH 7.5; 25.0 °C
[4] = substrate: C=CCc1ccc(O)c(OC)c1; assay: steady-state kinetics, purified enzyme, xylenol orange H2O2 assay (KM, Hill fit); format: biochemical, Diplodia corticola; details: FAD (covalently bound) catalytic center; pH 7.5; 25.0 °C
[5] = substrate: COc1cc(CO)ccc1O; assay: Michaelis-Menten kinetics, purified enzyme, xylenol orange H2O2 assay (KM); format: biochemical, Diplodia corticola; details: FAD (covalently bound) catalytic center; pH 7.5; 25.0 °C
[6] = substrate: CCCCOCc1ccc(O)c(OC)c1; assay: as above; format: biochemical, Diplodia corticola; details: FAD (covalently bound) catalytic center; pH 7.5; 25.0 °C
[7] = substrate: COCc1ccc(O)c(OC)c1; assay: as above; format: biochemical, Diplodia corticola; details: FAD (covalently bound) catalytic center; pH 7.5; 25.0 °C
[8] = substrate: CCOCc1ccc(O)c(OC)c1; assay: as above; format: biochemical, Diplodia corticola; details: FAD (covalently bound) catalytic center; Ala420 and Glu466 near the substrate (docking); pH 7.5; 25.0 °C

| Protein | Km (purified protein) [µM] | kcat (purified protein) [s⁻¹] | Km [1] [µM] | kcat [1] [s⁻¹] | Km [2] [µM] | kcat [2] [s⁻¹] | Km [3] [µM] | kcat [3] [s⁻¹] | Km [4] [µM] | kcat [4] [s⁻¹] | Km [5] [µM] | kcat [5] [s⁻¹] | Km [6] [µM] | kcat [6] [s⁻¹] | Km [7] [µM] | kcat [7] [s⁻¹] | Km [8] [µM] | kcat [8] [s⁻¹] |
| --- | --- | --- | --- | --- | --- | --- | --- | --- | --- | --- | --- | --- | --- | --- | --- | --- | --- | --- |
| B1 | 67 ± 2 | 18.7 ± 0.5 | 144 ± 10 | 6.7 ± 0.1 | 155 ± 5 | 7.9 ± 0.1 | 86 ± 3 | 2.6 ± 0.02 |  |  |  |  |  |  |  |  |  |  |
| B2 |  |  |  |  |  |  |  |  | 60 ± 3 | 10.3 ± 0.1 | 297 ± 21 | 4 ± 0.1 | 258 ± 27 | 2.1 ± 0.1 | 263 ± 12 | 1.9 ± 0.01 | 198 ± 19 | 4.7 ± 0.2 |
